Data reported in patent US20240409599A1 (Genentech, published 2024).
Positions count from the first letter of the chain named. Names may count otherwise.

T1: Human IL-18Rα extracellular domain (human, UniProt Q13478 22-329, biotinylated (site not stated))
T1 construct: also called IL-18 receptor
T1 sequence: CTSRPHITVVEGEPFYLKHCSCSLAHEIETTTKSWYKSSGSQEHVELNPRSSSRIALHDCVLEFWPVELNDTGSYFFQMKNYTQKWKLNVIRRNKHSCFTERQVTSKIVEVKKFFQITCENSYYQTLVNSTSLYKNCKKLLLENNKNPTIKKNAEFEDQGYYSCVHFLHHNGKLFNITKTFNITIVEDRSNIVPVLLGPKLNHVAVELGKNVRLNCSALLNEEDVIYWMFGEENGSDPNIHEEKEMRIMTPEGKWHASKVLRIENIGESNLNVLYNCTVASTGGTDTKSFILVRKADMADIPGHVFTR

T2: Human IL-18BP (isoform A) (human, UniProt O95998 31-194, biotinylated (site not stated))
T2 construct: also called decoy receptor
T2 sequence: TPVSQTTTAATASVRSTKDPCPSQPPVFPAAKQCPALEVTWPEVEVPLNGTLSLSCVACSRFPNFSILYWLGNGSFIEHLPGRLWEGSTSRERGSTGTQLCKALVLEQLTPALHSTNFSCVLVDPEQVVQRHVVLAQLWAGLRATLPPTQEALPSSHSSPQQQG

T3: Mouse IL-18BP (isoform D) (mouse, UniProt Q9Z0M9 29-193, biotinylated (site not stated))
T3 sequence: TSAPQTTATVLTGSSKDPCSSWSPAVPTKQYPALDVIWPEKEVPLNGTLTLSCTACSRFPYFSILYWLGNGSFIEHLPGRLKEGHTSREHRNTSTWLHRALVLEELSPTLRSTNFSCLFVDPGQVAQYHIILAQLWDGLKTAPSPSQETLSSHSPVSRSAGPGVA

T4: Mouse IL-18Rα extracellular domain (mouse, UniProt Q61098 20-326, biotinylated (site not stated))
T4 sequence: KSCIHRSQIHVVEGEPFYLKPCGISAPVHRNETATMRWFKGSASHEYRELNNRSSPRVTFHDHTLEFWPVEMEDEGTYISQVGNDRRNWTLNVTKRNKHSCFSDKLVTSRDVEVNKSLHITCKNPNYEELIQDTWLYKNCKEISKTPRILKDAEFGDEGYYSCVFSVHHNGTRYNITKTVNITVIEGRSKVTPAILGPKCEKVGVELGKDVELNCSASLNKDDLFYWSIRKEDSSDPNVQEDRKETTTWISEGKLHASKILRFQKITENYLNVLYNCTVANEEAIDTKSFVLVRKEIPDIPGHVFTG

B1: Human IL-18 A162C/I185C (ligand)
chain: YFGKLESKLSVIRNLNDQVLFIDQGNRPLFEDMTDSDSRDNAPRTIFIISMYKDSQPRGMAVTISVKSEKISTLSSENKIISFKEMNPPDNIKDTKSDIIFFQRSVPGHDNKMQFESSSYEGYFLCSEKERDLFKLILKKEDELGDRSCMFTVQNED
notes: Made in mammalian cells
B2: Human IL-18 S46C/V189C (ligand)
chain: B1 chain with S10C, C126A, C149I, V153C
notes: Made in mammalian cells
B3: Human IL-18 N50C (ligand)
chain: B1 chain with N14C, C126A, S127C, C149I
notes: Made in mammalian cells
B4: Human IL-18 N50C/L174C (ligand)
chain: B1 chain with N14C, S76C, C126A, S127C, L138C, C149I
notes: Made in mammalian cells
B5: Human IL-18 F57C/T81C (ligand)
chain: B1 chain with F21C, T45C, C126A, C149I
notes: Made in mammalian cells
B6: Human IL-18 S46C/I85C (ligand)
chain: B1 chain with S10C, I49C, C126A, C149I
notes: Made in mammalian cells
B7: Human IL-18 S101C/T109C (ligand)
chain: B1 chain with S65C, T73C, C126A, C149I
notes: Made in mammalian cells
B8: Human IL-18 S43C/S86C (ligand)
chain: B1 chain with S7C, S50C, C126A, C149I
notes: Made in mammalian cells
B9: Human IL-18 Y37C/S91C (ligand)
chain: B1 chain with Y1C, S55C, C126A, C149I
notes: Made in mammalian cells
B10: Human IL-18 L45C/E192C (ligand)
chain: B1 chain with L9C, C126A, C149I, E156C
notes: Made in mammalian cells
B11: Human IL-18 I107C/N123C (ligand)
chain: B1 chain with I71C, N87C, C126A, C149I
notes: Made in mammalian cells
B12: Human IL-18 T99C/P124C (ligand)
chain: B1 chain with T63C, P88C, C126A, C149I
notes: Made in mammalian cells
B13: Human IL-18 L174C (ligand)
chain: B1 chain with S76C, C126A, L138C, C149I
notes: Made in mammalian cells
B14: Human IL-18 hCS (ligand)
chain: B1 chain with C126A, C149I
B15: Mouse wild-type mature IL-18 (ligand)
chain: NFGRLHCTTAVIRNINDQVLFVDKRQPVFEDMTDIDQSASEPQTRLIIYMYKDSEVRGLAVTLSVKDSKMSTLSCKNKIISFEEMDPPENIDDIQSDLIFFQKRVPGHNKMEFESSLYEGHFLACQKEDDAFKLILKKKDENGDKSVMFTLTNLHQS
notes: also called Mouse WT; mouse mature IL-18
B16: Mouse IL-18 A159C/V182C (ligand)
chain: B15 chain with C7S, C75S, A124C, C125S, V147C
B17: Mouse IL-18 T44C/L189C (ligand)
chain: B15 chain with C7S, T9C, C75S, C125S, L154C
notes: Made in mammalian cells

Experiments:
[1] = molecular target: T1, Human IL-18Rα extracellular domain; assay: SPR, Biacore 8K, 37 C, biotinylated target on SA chip, single-cycle kinetics
Procedure: (§1) SPR experiments were performed using a Biacore 8K (Cytiva) at a temperature of 37° C. Biotinylated human or mouse IL-18Rα and IL-18BP were immobilized onto Biacore streptavidin sensor chip (Series S Sensor Chip SA, Cytiva) to yield an Rmax ≤50 RU. Measurements were made with five, three-fold dilutions into HBS-P+ buffer (10 mM HEPES pH 7.4, 150 mM NaCl, 0.005% surfactant P20). Interactions were evaluated using the single-cycle kinetics method and analyzed with the Biacore 8K evaluation software and fit to a 1:1 binding model.
(§2) A subset of variants were selected for analyses of binding kinetics to the L-18 receptor, IL-IM, and the decoy receptor, L-18BP, by surface plasmon resonance (SPR) (Table 8). With two exceptions, all kinetics constants are within an order of magnitude of wild-type IL-18.

[2] = molecular target: T2, Human IL-18BP (isoform A); assay: as above
Procedure: as §1, §2

[3] = molecular target: T1, Human IL-18Rα extracellular domain; assay: SPR, Biacore 8K, 37 C, biotinylated target on SA chip
Procedure: as §1, §2

[4] = molecular target: T3, Mouse IL-18BP (isoform D); assay: SPR, Biacore 8K, 37 C, biotinylated target on SA chip, single-cycle kinetics
Procedure: as §1, §2

[5] = molecular target: T4, Mouse IL-18Rα extracellular domain; assay: as above
Procedure: as §1, §2

Binder | Kd [1] | koff [1] | kon [1] | Kd [2] | koff [2] | kon [2] | binding result [3] | kon [4] | Kd [5] | koff [5] | kon [5] | Kd [4] | koff [4]
B1 | 68.1 nM | 0.212 s⁻¹ | 3.11e+06 M⁻¹ s⁻¹ | 0.0065 nM | 1.89e-05 s⁻¹ | 2.91e+06 M⁻¹ s⁻¹ | – | – | – | – | – | – | –
B2 | 147 nM | 0.054 s⁻¹ | 360000 M⁻¹ s⁻¹ | 0.018 nM | 4.3e-05 s⁻¹ | 2.3e+06 M⁻¹ s⁻¹ | – | – | – | – | – | – | –
B3 | – | – | – | 0.0062 nM | 2.6e-05 s⁻¹ | 4.22e+06 M⁻¹ s⁻¹ | no binding (tested: up to 81 nM) | – | – | – | – | – | –
B4 | – | – | – | 0.014 nM | 4.8e-05 s⁻¹ | 3.6e+06 M⁻¹ s⁻¹ | no binding (tested: up to 81 nM) | – | – | – | – | – | –
B5 | – | – | – | 0.007 nM | 2.2e-05 s⁻¹ | 3.4e+06 M⁻¹ s⁻¹ | – | – | – | – | – | – | –
B6 | – | – | – | 0.035 nM | 0.00012 s⁻¹ | 3.3e+06 M⁻¹ s⁻¹ | – | – | – | – | – | – | –
B7 | 147 nM | 0.042 s⁻¹ | 280000 M⁻¹ s⁻¹ | 0.011 nM | 2.4e-05 s⁻¹ | 2.3e+06 M⁻¹ s⁻¹ | – | – | – | – | – | – | –
B8 | 54.5 nM | 0.0241 s⁻¹ | 440000 M⁻¹ s⁻¹ | 0.009 nM | 3.2e-05 s⁻¹ | 3.4e+06 M⁻¹ s⁻¹ | – | – | – | – | – | – | –
B9 | – | – | – | 0.07 nM | 0.00018 s⁻¹ | 2.6e+06 M⁻¹ s⁻¹ | – | – | – | – | – | – | –
B10 | 58.7 nM | 0.028 s⁻¹ | 470000 M⁻¹ s⁻¹ | 0.015 nM | 3.1e-05 s⁻¹ | 2.1e+06 M⁻¹ s⁻¹ | – | – | – | – | – | – | –
B11 | 14.7 nM | 0.031 s⁻¹ | 2.1e+06 M⁻¹ s⁻¹ | 0.007 nM | 2.1e-05 s⁻¹ | 2.9e+06 M⁻¹ s⁻¹ | – | – | – | – | – | – | –
B12 | 64.4 nM | 0.032 s⁻¹ | 500000 M⁻¹ s⁻¹ | 0.008 nM | 2.5e-05 s⁻¹ | 3e+06 M⁻¹ s⁻¹ | – | – | – | – | – | – | –
B13 | 32.8 nM | 0.011 s⁻¹ | 350000 M⁻¹ s⁻¹ | 0.007 nM | 2.1e-05 s⁻¹ | 2.93e+06 M⁻¹ s⁻¹ | – | – | – | – | – | – | –
B14 | 1.7 nM | 5.6e-05 s⁻¹ | 32000 M⁻¹ s⁻¹ | 0.035 nM | 4.9e-05 s⁻¹ | 1.4e+06 M⁻¹ s⁻¹ | – | – | – | – | – | – | –
B15 | – | – | – | – | – | – | – | 650000 M⁻¹ s⁻¹ | 1.27 nM | 0.0097 s⁻¹ | 7.6e+06 M⁻¹ s⁻¹ | – | –
B16 | – | – | – | – | – | – | – | 2.23e+06 M⁻¹ s⁻¹ | 1.11 nM | 0.0077 s⁻¹ | 7e+06 M⁻¹ s⁻¹ | 0.014 nM | 3.2e-05 s⁻¹
B17 | – | – | – | – | – | – | – | 2e+06 M⁻¹ s⁻¹ | 5.2 nM | 0.04 s⁻¹ | 7.6e+06 M⁻¹ s⁻¹ | 0.005 nM | 1.1e-05 s⁻¹
